Experimental data from patent publication US20250049970A1, “DLL3 TARGETING PEPTIDES AND CONSTRUCTS THEREOF” (MARIANA ONCOLOGY INC., priority 2023, published 2025).
Where “and” joins values, the source holds several entries; their conditions need not be identical. Equal entries are not always repeated. *1 amine or outer side, *2 acyl side, *3 side chain or, on linkers, in order; H or OH if unused. Where a SMILES comes first, the peptide text is derived from it. Bridges are numbered along the chain shown (N, C = ends). [ ]: non-standard residue; d: D form. The star is where a group is joined. Ala(piperidin-4-yl) = O=C([C@H](CC1CCN([*:3])CC1)N[*:1])[*:2]; DOTA = O=C(O)CN1CCN(CC(=O)O)CCN(CC(=O)*)CCN(CC(=O)O)CC1; 2Nal = N[C@@H](Cc1ccc2ccccc2c1)C(=O)O; Ile(3-Me) = CCC(C)(C)[C@H](N)C(=O)O; aIle = CC[C@@H](C)[C@H](N)C(=O)O; tBuAla = CC(C)(C)C[C@H](N)C(=O)O; Chg = N[C@H](C(=O)O)C1CCCCC1

T1: DLL3 (Homo sapiens, UniProt Q9NYJ7)
T1 sequence (Q9NYJ7 27-618): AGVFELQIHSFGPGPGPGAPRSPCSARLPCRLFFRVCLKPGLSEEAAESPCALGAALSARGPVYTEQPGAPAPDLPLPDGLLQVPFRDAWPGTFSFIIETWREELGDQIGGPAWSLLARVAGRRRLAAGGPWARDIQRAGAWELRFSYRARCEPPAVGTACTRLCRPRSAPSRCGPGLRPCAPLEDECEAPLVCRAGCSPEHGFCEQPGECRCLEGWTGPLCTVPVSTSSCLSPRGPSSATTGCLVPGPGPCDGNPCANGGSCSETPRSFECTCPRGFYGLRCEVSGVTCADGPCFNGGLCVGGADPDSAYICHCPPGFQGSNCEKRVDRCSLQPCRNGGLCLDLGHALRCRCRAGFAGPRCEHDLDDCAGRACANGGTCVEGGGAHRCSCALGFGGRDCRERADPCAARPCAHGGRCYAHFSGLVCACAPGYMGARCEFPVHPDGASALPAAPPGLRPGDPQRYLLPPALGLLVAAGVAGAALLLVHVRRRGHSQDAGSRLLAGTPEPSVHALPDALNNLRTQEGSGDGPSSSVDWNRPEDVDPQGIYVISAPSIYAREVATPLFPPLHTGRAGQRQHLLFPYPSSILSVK

T2: DLL3 on SHP-77 cells (human, UniProt Q9NYJ7 27-618)
T2 construct: SHP-77 cells are human-derived, non-engineered SCLC cells
T2 sequence: T1 sequence (Q9NYJ7 27-618)

T3: Biotinylated target ligand human DLL3 (human, UniProt Q9NYJ7 27-492, limits assumed, biotinylated (site not stated))
T3 sequence: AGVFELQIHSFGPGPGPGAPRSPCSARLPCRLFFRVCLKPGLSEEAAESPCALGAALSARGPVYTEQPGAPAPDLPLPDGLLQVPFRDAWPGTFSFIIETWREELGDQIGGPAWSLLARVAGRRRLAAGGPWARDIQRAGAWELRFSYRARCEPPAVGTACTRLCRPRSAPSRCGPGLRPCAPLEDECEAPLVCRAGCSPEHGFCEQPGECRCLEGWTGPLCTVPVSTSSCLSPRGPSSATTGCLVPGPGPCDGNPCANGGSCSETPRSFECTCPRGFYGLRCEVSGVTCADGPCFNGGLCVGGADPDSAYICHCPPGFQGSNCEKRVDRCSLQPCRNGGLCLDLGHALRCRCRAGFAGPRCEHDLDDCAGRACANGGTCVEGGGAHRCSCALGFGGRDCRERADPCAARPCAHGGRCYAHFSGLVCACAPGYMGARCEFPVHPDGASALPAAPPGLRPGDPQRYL


How the values were obtained:
DLL3 = biological target: T1, DLL3; experiment: SPR binding affinity of cyclic peptides (SEQ ID NOs), SA sensor chip, Biacore S200; settings: 25° C., 1:1 binding model
Description: The binding affinity and binding kinetic parameters at 25° C. were determined using Biacore S200 instrument. Target ligand was immobilized on a SA sensor chip via streptavidin capture. A reference surface was set up for nonspecific binding and refractive index changes. For analysis of the kinetics of interactions, varying concentrations of peptides were injected at a flow rate of 50 μL/minute using running buffer containing 20 mM phosphate buffer with 2.7 mM KCl, 137 mM NaCl and 0.05% Surfactant P20. Sensorgram curves were fitted with 1:1 binding model, and affinity and kinetic parameters were obtained using either Biacore S200 evaluation software 1.1.1 or Biacore Insight evaluation 4.0.

[1] = biological target: DLL3 on CT26.DLL3 cells (Homo sapiens (Human)) (UniProt Q9NYJ7); experiment: [177Lu]Lu-labelled peptide on CT26.DLL3 cells, 1 h 37 C, gamma counter; A = %<=25
DLL3 on SHP-77 cells = biological target: T2, DLL3 on SHP-77 cells; experiment: [177Lu]Lu-labelled peptide on SHP-77 cells, 1 h 37 C, gamma counter; B = 25<%<=50
[2] = biological target: T3, Biotinylated target ligand human DLL3; experiment: SPR, biotinylated human DLL3 on streptavidin chip; B = 1.0 nM<KD<=10 nM; lower limit of grade B
Description: (§1) Biotinylated target ligand human DLL3 was immobilized on a streptavidin sensor chip. A reference surface was set up for nonspecific binding and refractive index changes. For analysis of the kinetics of interactions, varying concentrations of samples were injected at a flow rate of 100 μL/minute using running buffer containing 20 mM phosphate buffer with 2.7 mM KCl, 137 mM NaCl, 0.05% Surfactant P20 and 2% DMSO. Sensorgram curves were fitted with 1:1 binding model, and affinity and kinetic parameters were obtained using Biacore Insight evaluation 4.0. software.

[3] = biological target: T3, Biotinylated target ligand human DLL3; experiment: SPR, biotinylated human DLL3 on streptavidin chip; B = 1.0 nM<KD<=10 nM; upper limit of grade B
Description: as §1

[4] = biological target: T3, Biotinylated target ligand human DLL3; experiment: SPR, biotinylated human DLL3 on streptavidin chip; A = KD<=1.0 nM
Description: as §1

[5] = biological target: DLL3 on CT26.DLL3 cells (Homo sapiens (Human)) (UniProt Q9NYJ7); experiment: [177Lu]Lu-labelled peptide on CT26.DLL3 cells, 1 h 37 C, gamma counter; B = 25<%<=50
[6] = biological target: Recombinant human DLL3 aa27-215 protein (human) (UniProt Q9NYJ7); experiment: ELISA: anti-DOTA antibody coated on the plate captures the DOTA-containing peptide (titrated 100 nM to 1.69 pM); 2 ug/mL DLL3 aa27-215 (His-tagged) added; detected with anti-His-HRP, OD450; EC50 fitted in GraphPad

Row | Molecule | Kd (DLL3) [nM] | % Binding [1] [%] | % Binding (DLL3 on SHP-77 cells) | other results
1 | Ac-WT[Ile(3-Me)]C[Ala(piperidin-4-yl)]N[2Nal]K(DOTA)DCWP-NH2 (disulfide 4-10) [Cpd No. 302] | – | < 25 | > 25% and < 50% | –
2 | Ac-MWTICNNWHDCWP-NH2 (disulfide 5-11) [Cpd No. 1] | – | – | – | Kd [2]: > 1 nM; Kd [3]: ≤ 10 nM
3 | Ac-WT[tBuAla]C[Ala(piperidin-4-yl)]N[2Nal]K(DOTA)DCWP-NH2 (bridge 4-10; not fully specified (bridges)) [Cpd No. 94] | – | – | – | % Binding [5]: > 25% and < 50%; EC50 [6]: 2.19 nM

The next lines start with results.

Row | Kd (DLL3) [nM] | % Binding [1] [%] | % Binding (DLL3 on SHP-77 cells) | Molecule | other results
4 | 150 | – | – | CSCC[C@H](NC(C)=O)C(=O)N[C@@H](Cc1c[nH]c2ccccc12)C(=O)N[C@@H](CCSC)C(=O)N[C@@H](CC(C)C)C(=O)N[C@H]1CSSC[C@@H](C(=O)N[C@@H](Cc2c[nH]c3ccccc23)C(=O)N2CCC[C@H]2C(N)=O)NC(=O)[C@H](CC(=O)O)NC(=O)[C@H](CCCCN)NC(=O)[C@H](CC(=O)O)NC(=O)[C@H](Cc2c[nH]c3ccccc23)NC(=O)[C@H](CC(=O)O)NC1=O [compound 77] (Ac-MWMLCDWDKDCWP-NH2; disulfide 5-11) | –
5 | 150 | – | – | CC[C@H](C)[C@H](NC(=O)[C@@H](NC(=O)[C@H](Cc1c[nH]c2ccccc12)NC(=O)[C@H](CCSC)NC(C)=O)[C@@H](C)O)C(=O)N[C@H]1CSSC[C@@H](C(=O)N[C@@H](Cc2c[nH]c3ccccc23)C(=O)N[C@H](C)C(N)=O)NC(=O)[C@H](CC(=O)O)NC(=O)[C@H](Cc2cnc[nH]2)NC(=O)[C@H](Cc2c[nH]c3ccccc23)NC(=O)[C@H](CC(N)=O)NC(=O)[C@H](CC(N)=O)NC1=O [compound 85] (Ac-MWTICNNWHDCW[dA]-NH2; disulfide 5-11) | –
6 | 47 | – | – | CC[C@H](C)[C@H](NC(=O)[C@@H](NC(=O)[C@H](Cc1c[nH]c2ccccc12)NC(=O)[C@H](CCSC)NC(C)=O)[C@@H](C)O)C(=O)N[C@H]1CSSC[C@@H](C(=O)N[C@@H](Cc2c[nH]c3ccccc23)C(=O)N2CCC[C@H]2C(N)=O)NC(=O)[C@H](CC(=O)O)NC(=O)[C@H](Cc2cnc[nH]2)NC(=O)[C@H](Cc2c[nH]c3ccccc23)NC(=O)[C@H](CC(N)=O)NC(=O)[C@@H](C)NC1=O [compound 82] (Ac-MWTIC[dA]NWHDCWP-NH2; disulfide 5-11) | –
7 | – | < 25 | > 25% and < 50% | Ac-WT[Chg]C[Ala(piperidin-4-yl)]N[2Nal]K(DOTA)DCWP-NH2 (disulfide 4-10) [Cpd No. 324] | –
8 | – | < 25 | > 25% and < 50% | Ac-WT[aIle]C[Ala(piperidin-4-yl)]N[2Nal]K(DOTA)DCWP-NH2 (disulfide 4-10) [Cpd No. 303] | Kd [4]: < 1 nM
